Experimental data taken from the Human Domainome abundance scans (Beltran et al. 2025).
± gives the uncertainty stated by the source.

B1: Pituitary-specific positive transcription factor 1, residues 130 to 198; numbered along this chain, P28069 (parent)
chain: RELEKFANEFKVRRIKLGYTQTNVGEALAAVHGSEFSQTTICRFENLQLSFKNACKLKAILSKWLEEAE

Variants of: B1
Test: abundance fitness (aPCA) (normalised: wild type 0, dead -1); higher = more abundant; growth selection in yeast, the domain comes from the species named
Conditions: Homo sapiens

| Variant | abundance fitness |
| --- | --- |
| RELEKFANEFKVRRIKLGYTQTNVGEALAAVHGSEFSQTTIARFENLQLSFKNACKLKAILSKWLEEAE [C42A] | 0.21 ± 0.074 |
| RELEKFANEFKVRRIKLGYTATNVGEALAAVHGSEFSQTTICRFENLQLSFKNACKLKAILSKWLEEAE [Q21A] | -0.16 ± 0.079 |
| RELEKFANEFKVRRIKLGYTQTNVGEALAAVHGSEFSQTWICRFENLQLSFKNACKLKAILSKWLEEAE [T40W] | -0.624 ± 0.11 |
| RELEKFANEFKVRRIKLGYTQTNVGEALAAVHGSEFSQTLICRFENLQLSFKNACKLKAILSKWLEEAE [T40L] | -0.003 ± 0.073 |
| RELDKFANEFKVRRIKLGYTQTNVGEALAAVHGSEFSQTTICRFENLQLSFKNACKLKAILSKWLEEAE [E4D] | -0.612 ± 0.32 |
| RELEKFANEFKVRRIKLGYTQTNVGEALAAVHGSEFSQTTICRFENLQLSFKNAMKLKAILSKWLEEAE [C55M] | 0.145 ± 0.13 |
| RELEKFANEFKVRRIKLGYTQTNVGEALAAVHGSEFSQTTICRFENLQLSFKNACKPKAILSKWLEEAE [L57P] | -0.89 ± 0.3 |
| RELEKFANEFKVRRIKLGYTQTNVGEALAAVHGSEFSQTTICRFENLQLSFKNACKKKAILSKWLEEAE [L57K] | -0.497 ± 0.16 |
| RELEKFANEFKVRRIKLGYTQTNVGEALAAGHGSEFSQTTICRFENLQLSFKNACKLKAILSKWLEEAE [V31G] | -0.404 ± 0.1 |
| RELEKFANEFKVRRIKLGYTQTNVGEALAATHGSEFSQTTICRFENLQLSFKNACKLKAILSKWLEEAE [V31T] | -0.021 ± 0.068 |
| RELEKFLNEFKVRRIKLGYTQTNVGEALAAVHGSEFSQTTICRFENLQLSFKNACKLKAILSKWLEEAE [A7L] | -0.975 ± 0.13 |
| RELEKFMNEFKVRRIKLGYTQTNVGEALAAVHGSEFSQTTICRFENLQLSFKNACKLKAILSKWLEEAE [A7M] | -0.551 ± 0.15 |
| RELEKFANEFKIRRIKLGYTQTNVGEALAAVHGSEFSQTTICRFENLQLSFKNACKLKAILSKWLEEAE [V12I] | -0.002 ± 0.11 |
| RELEKFANEFKQRRIKLGYTQTNVGEALAAVHGSEFSQTTICRFENLQLSFKNACKLKAILSKWLEEAE [V12Q] | 0.16 ± 0.23 |
| RELEKFANEFKVRRIKLGYTQTNVGEALAAVHGSEFSQTTICRFENLQESFKNACKLKAILSKWLEEAE [L49E] | -0.616 ± 0.14 |
| RELEKFANEFKVRRIKLGYTQTNVGEALAAVHGSEFSQTTICRFENLQLSTKNACKLKAILSKWLEEAE [F51T] | -0.07 ± 0.14 |
| RELEKFANEFKVRRIKLGYTQTNVGEALAAVHGSEFSQTTICRFENLQLSFKNACHLKAILSKWLEEAE [K56H] | -0.34 ± 0.095 |
| RELEKFANEFKVRRIKLGYTQTNVGEALAAVHGSEFSQTTMCRFENLQLSFKNACKLKAILSKWLEEAE [I41M] | -0.446 ± 0.15 |
| RELEKFANEFKVRRIKLGYTQTNVGEALAAVHGSEFSQTTGCRFENLQLSFKNACKLKAILSKWLEEAE [I41G] | -0.976 ± 0.27 |
| RELEKFANEFKVRRIKLGYTQTNVGEALAAVHPSEFSQTTICRFENLQLSFKNACKLKAILSKWLEEAE [G33P] | -0.393 ± 0.075 |

| Variant | abundance fitness |
| --- | --- |
| RELEKFAEEFKVRRIKLGYTQTNVGEALAAVHGSEFSQTTICRFENLQLSFKNACKLKAILSKWLEEAE [N8E] | -0.168 ± 0.15 |
| RELEKFANEFKVRRIKLGYTQTNVGEALAAVHGSEFSQTTICRFERLQLSFKNACKLKAILSKWLEEAE [N46R] | -0.313 ± 0.056 |
| RELEKFANEFKVRRIKLGYTQTNVGEALAAVHGSEFSQTTICTFENLQLSFKNACKLKAILSKWLEEAE [R43T] | -0.825 ± 0.15 |
| RELEKFANEFKVRRIKLGYTQTNVGEALAAVHGSEFSQTTICAFENLQLSFKNACKLKAILSKWLEEAE [R43A] | 0.12 ± 0.076 |
| RELEKFANEFKVRRIKLGYTQTNVGEALAAVHGSEFSQTTICRFENLQLSFKNACKLKAILSKWLEECE [A68C] | -0.752 ± 0.22 |
| RELEKFANEFKVRRIKLGYTQTNVGEALAAVHGSEFSQTTICRFENLQLSFKNACKLKAILSKWLEEGE [A68G] | -0.664 ± 0.15 |
| RELEKFANEFKVRRIKLGYTQTNVGEALAAVHGSEFSQTTICRFENLQLSFKNACKLKAILSKWLEERE [A68R] | -0.232 ± 0.077 |
| RELEKFANEFKVRRIKLGYTQTNVGEALAAVHGSEFSQTTICRFENLQLSFKNACKLKAILSKWLEESE [A68S] | -0.518 ± 0.15 |
| RELEKFANEFKVRRIKLGYTQTNVGEALAAVHGSEFSQTTICRFENLQLSFKNACKLKAILSKWLEEEE [A68E] | -0.003 ± 0.063 |
| RELEKFANEFKVRRIKLGYTQTNVGEALAAVHGSEFSQTTICRFENLQLSFKNACKLKAYLSKWLEEAE [I60Y] | -0.347 ± 0.14 |
| RELEKFANEFKVRRIKLGYTQTNVGEALAAVHGVEFSQTTICRFENLQLSFKNACKLKAILSKWLEEAE [S34V] | -0.084 ± 0.13 |
| NELEKFANEFKVRRIKLGYTQTNVGEALAAVHGSEFSQTTICRFENLQLSFKNACKLKAILSKWLEEAE [R1N] | -0.37 ± 0.17 |
| RELEKFANEFKVRRIKLGYTQTNVGEALAAVHGSEFSQTTICRFENLQLKFKNACKLKAILSKWLEEAE [S50K] | -0.182 ± 0.2 |
| RELEKFANEFKVRRIKAGYTQTNVGEALAAVHGSEFSQTTICRFENLQLSFKNACKLKAILSKWLEEAE [L17A] | -0.401 ± 0.091 |
| RELEKFANEFKVRRIKLGYTQTNVGEALAAVHGSEFSQTTICRFENLQLSFKNACKLKAIISKWLEEAE [L61I] | -0.841 ± 0.24 |
| RELEKFANEFKVRRIKLGYTQTNVGEALAAVHGSEFSQTTICRFENLQLSFKNACKLKAIESKWLEEAE [L61E] | -0.604 ± 0.18 |
| RELEKFANEFEVRRIKLGYTQTNVGEALAAVHGSEFSQTTICRFENLQLSFKNACKLKAILSKWLEEAE [K11E] | -0.786 ± 0.15 |
| RELEKFANEFKVRRTKLGYTQTNVGEALAAVHGSEFSQTTICRFENLQLSFKNACKLKAILSKWLEEAE [I15T] | -0.13 ± 0.073 |
| RELEKFANEFKVRRLKLGYTQTNVGEALAAVHGSEFSQTTICRFENLQLSFKNACKLKAILSKWLEEAE [I15L] | -0.196 ± 0.045 |
